Measurements from patent US10722576 (dated 2020).
Read-outs that look alike come from different tables or passages of the source.

Tests used:
Assay in all cases: ELISA
mouse TfR-1 [1] = target: T1, mouse TfR-1 (mouse, UniProt Q62351)
mouse TfR-1 [2] = target: T1, mouse TfR-1; remark: listed apart in the source
human TfR-1 [3] = target: T2, human TfR-1 (human, UniProt P02786)
human TfR-1 [4] = target: T2, human TfR-1; remark: listed apart in the source
human TfR-1 [5] = target: T2, human TfR-1; remark: listed apart in the source
human TfR-2 = target: T3, human TfR-2 (human, UniProt Q9UP52)
T3 chain: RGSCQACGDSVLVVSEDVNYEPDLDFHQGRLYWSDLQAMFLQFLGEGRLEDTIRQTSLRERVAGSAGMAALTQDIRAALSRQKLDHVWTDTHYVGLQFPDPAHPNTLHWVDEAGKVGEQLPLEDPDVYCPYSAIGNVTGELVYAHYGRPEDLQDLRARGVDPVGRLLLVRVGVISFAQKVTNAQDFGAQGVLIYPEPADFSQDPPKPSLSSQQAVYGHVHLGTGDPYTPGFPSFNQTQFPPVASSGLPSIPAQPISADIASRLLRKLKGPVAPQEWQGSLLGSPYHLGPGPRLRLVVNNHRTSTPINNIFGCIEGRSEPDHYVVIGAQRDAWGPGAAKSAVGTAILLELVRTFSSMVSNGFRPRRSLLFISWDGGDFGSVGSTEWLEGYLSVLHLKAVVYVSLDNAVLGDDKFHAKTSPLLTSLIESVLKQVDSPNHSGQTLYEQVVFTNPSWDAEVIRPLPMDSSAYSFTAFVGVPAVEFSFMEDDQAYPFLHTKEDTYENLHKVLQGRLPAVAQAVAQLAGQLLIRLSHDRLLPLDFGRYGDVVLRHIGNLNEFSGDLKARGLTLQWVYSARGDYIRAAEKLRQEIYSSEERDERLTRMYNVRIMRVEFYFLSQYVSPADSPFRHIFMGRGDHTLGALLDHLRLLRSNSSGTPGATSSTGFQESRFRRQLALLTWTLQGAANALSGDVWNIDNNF

T2 sequence (P02786 89-760): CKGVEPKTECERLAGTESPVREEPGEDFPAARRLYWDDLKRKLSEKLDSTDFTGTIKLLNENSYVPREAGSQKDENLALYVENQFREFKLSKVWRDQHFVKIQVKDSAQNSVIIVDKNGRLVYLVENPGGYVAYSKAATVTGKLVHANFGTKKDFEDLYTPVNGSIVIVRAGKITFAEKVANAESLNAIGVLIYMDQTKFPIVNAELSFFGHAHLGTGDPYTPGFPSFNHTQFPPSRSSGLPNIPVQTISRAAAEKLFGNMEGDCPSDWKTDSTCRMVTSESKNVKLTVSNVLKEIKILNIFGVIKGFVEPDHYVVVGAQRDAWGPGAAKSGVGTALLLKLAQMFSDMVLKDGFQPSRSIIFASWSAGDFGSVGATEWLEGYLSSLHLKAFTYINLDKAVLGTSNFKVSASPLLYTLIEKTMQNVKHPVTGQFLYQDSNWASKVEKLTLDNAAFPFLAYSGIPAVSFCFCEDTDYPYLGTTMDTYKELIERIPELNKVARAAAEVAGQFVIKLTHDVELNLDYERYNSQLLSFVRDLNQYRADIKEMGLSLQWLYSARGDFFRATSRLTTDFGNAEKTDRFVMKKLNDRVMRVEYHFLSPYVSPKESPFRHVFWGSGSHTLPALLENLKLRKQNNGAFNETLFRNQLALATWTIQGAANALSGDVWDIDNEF
T1 sequence (Q62351 89-763): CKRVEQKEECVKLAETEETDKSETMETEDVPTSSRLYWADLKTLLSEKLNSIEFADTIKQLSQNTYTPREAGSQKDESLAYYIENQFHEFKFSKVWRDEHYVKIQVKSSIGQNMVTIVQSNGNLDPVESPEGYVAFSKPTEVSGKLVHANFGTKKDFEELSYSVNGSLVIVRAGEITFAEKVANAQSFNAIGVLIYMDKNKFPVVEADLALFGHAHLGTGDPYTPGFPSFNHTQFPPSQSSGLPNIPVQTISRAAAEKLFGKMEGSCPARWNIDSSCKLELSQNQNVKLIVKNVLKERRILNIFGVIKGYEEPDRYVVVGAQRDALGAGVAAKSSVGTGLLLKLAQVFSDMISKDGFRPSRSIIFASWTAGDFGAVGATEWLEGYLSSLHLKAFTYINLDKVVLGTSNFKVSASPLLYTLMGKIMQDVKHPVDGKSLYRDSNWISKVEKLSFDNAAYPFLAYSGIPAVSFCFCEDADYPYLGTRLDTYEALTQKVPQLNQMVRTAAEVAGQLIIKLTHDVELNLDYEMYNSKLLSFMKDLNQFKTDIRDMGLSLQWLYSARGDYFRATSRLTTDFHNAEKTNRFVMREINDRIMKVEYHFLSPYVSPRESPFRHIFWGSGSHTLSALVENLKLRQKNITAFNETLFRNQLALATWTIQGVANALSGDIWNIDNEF

B1: F02-hFc (designed binder)
chain: ARVDQTPQTITKETGESLTINCVLRDNDCTLSSTHWYRKKSGSTNEERISKGGRYVETVNSGSKSFSLRINDLTVEDSGTYRCNVYAMTRNWWCDVYGGGTVVTVNAASGA
Question: How did the EC50 (mouse TfR-1 [1]) turn out when B1 was run?
Answer: Its EC50 is 34.3 nM.

Question: What about the EC50 (mouse TfR-1 [2]) of the same binder?
Answer: The EC50 was 34.2 nM.

Question: What about the EC50 (human TfR-1 [3]) of the same binder?
Answer: Its EC50 is 9 nM.

Question: What about the EC50 (human TfR-1 [4]) of the same binder?
Answer: Its EC50 is 26.3 nM.

Question: And the EC50 (human TfR-1 [5])?
Answer: Its EC50 is ~100 nM.

Question: Does B1 bind (human TfR-2)?
Answer: Result: no binding

B2: H01-Fc (designed binder)
chain: ARVDQTPQTITKETGESLTINCVLRDSNCALSSTYWYRKKSGSTKEESISKGGRYVETVNSGSKSFSLRINDLTVEDSGTYRCNVWHDLVWSVCTTDVYGGGTVVTVNAASGA
Question: Which EC50 (human TfR-1 [5]) does the source give for B2 here?
Answer: The EC50 was ~100 nM.

Question: Does B2 bind (human TfR-2)?
Answer: Result: no binding
